Measurements published in patent US20050059107A1.

Key:
[1] = target: HLA-DP4 molecule DP401 (DPA1*0103/DPB1*0401) (human) (UniProt P20036); assay: competition ELISA
[2] = target: HLA-DP4 molecule DP401 (DPA1*0103/DPB1*0401) (human) (UniProt P20036); assay: competition ELISA, tracer bUNK1
[3] = target: HLA-DP4 molecule DP402 (DPA1*0103/DPB1*0402) (human) (UniProt P20036); assay: competition ELISA, tracer bUNK1
[4] = target: HLA-DP4 molecule DP401 (DPA1*0103/DPB1*0401) (human) (UniProt P20036); assay: competition ELISA; capped, '>10 000' in Table VII
[5] = target: HLA-DP4 molecule DP402 (DPA1*0103/DPB1*0402) (human) (UniProt P20036); assay: competition ELISA; capped, '>10 000' in Table VII
[6] = target: HLA-DP4 molecule DP402 (DPA1*0103/DPB1*0402) (human) (UniProt P20036); assay: competition ELISA

Row | Substance | IC50 [1] [µM] | IC50 [2] [µM] | IC50 [3] [µM] | IC50 [4] [µM] | IC50 [5] [µM] | IC50 [6] [µM] | relative binding activity vs UNK1 (IC50 ratio) [3] [fold]
1 | Api m1 81-98 (peptide) | 2.25 | 2.25 | – | – | – | – | –
2 | Api m1 69-86 (peptide) | – | > 10 | > 10 | 10 | > 10 | – | –
3 | Api m1 65-82 (peptide) | 50 | 50 | 6.5 | – | – | 6.5 | 371
4 | Api m1 73-90 (peptide) | – | > 10 | > 10 | 10 | > 10 | – | –
